The supplement of paper PMC10567573

B1: SMG5 (parent)
chain: QEKLQVLMAEGLLPAVKVFLDWLR
B2: FAM107A (parent)
chain: HRRGLGVDSKPELQRVLEHRRRNQ

Variants of: B1
Experiment: protein stability index of a GFP-peptide fusion (GPS, HEK-293T) (PSI 1-6); higher = more stable
Details: c terminus: a fixed tail appended
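Further: lentivirally expressed fusions sorted by FACS into six bins by GFP to DsRed ratio, PSI derived from sequencing read proportions per bin multiplied by bin number.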

Protein stability index of substitutions, site by site:
V16: K 2.04, T 2.46, N 1.75, L 1.39, F 2.56, E 2.15, I 2.16, S 2.31, Q 1.86, A 1.67, G 1.15, D 1.95, R 2.25, W 1.96, H 1.93, C 1.98, M 1.85, Y 2.29, P 3.13
W22: V 1.62, C 1.99, Y 2.13, I 1.96, K 2.53, G 2.63, P 2.26, M 1.57, H 2.73, F 2.09, R 1.95, L 2.47, T 1.91, Q 2.38, S 2.17, E 2.05, A 2.8, N 2.28
K17: A 2.99, C 1.86, M 1.79, G 1.91, T 2.05, Y 2.78, S 1.82, V 1.52, N 2.26, L 2.03, H 1.71, E 1.72, W 2.18, R 2.07, I 2.31, F 1.91, P 1.2, Q 1.44, D 1.27
L20: D 1.59, Q 2.02, F 2.52, I 2.02, R 1.58, G 1.77, A 3.26, S 2.73, V 1.4, P 1.76, T 3.12, M 2.64, C 3.11, W 2.29, E 1.7, Y 1.54, K 1.41
P14: W 2.46, Y 2.43
L23: V 1.67, H 1.27, E 1.26, Q 1.91, T 1.19, P 2.21, I 2.39, M 4.59, C 1.08, Y 1.97, G 2.66, R 2.38, N 2.58, W 1.7, D 2.75, A 1.72, K 1.83, S 2.57, F 2.67
F19: C 2.4, S 2.73, Q 2.13, E 1.53, M 2.48, L 1.9, G 3.15, I 2.39, Y 1.6, H 1.31, A 2.97, D 2.14, N 1.53, W 1.89, P 2.17, K 2.35, R 2.12
V18: S 3.52, I 2.82, P 1.91, E 2.37, M 2.59, T 3.25, C 2.37, L 1.99, Q 3.07, W 1.64, G 3.13, A 2.19, K 2.05, R 3.86, F 1.94, H 3.52, Y 3.16, D 2.44
A15: Y 2.5, E 2, D 1.66, P 1.86, L 1.63, G 2.45, F 2.42, Q 2.21, W 1.88, S 2.39, C 2.72, R 4.13, N 2.4, V 1.88, T 3.37, M 2.05, I 1.76, H 1.99
R24: M 1.89, K 2.45, E 2.5, I 1.93, G 1.43, S 2.62, Y 1.91, A 1.21, H 2.6, P 3.34, V 1.67, F 2.23, L 2.96, T 1.88, N 1.92, W 1.83, D 2, Q 1.75, C 1.59
D21: F 3.72, I 2.5, A 2.05, N 2.6, G 2.04, Y 3.03, E 1.33, K 2.54, M 2.04, L 2.2, P 1.65, H 3.17, T 2.98, C 1.68

Variants of: B2
Experiment: as above
Details: c terminus: a fixed tail appended

Protein stability index: each site, then its substitutions
S9: D 4.67, V 3.98, A 2.99, L 4.15, W 3.55, I 4.66, F 3.52, R 4.8, P 4.38, G 4.41, Y 4.16, H 4.46, M 4.14, E 4.39, K 4.76
V7: H 2.61, K 4.33, C 3.07, Q 4.95, T 4.79, Y 4.23, S 4.88, D 4.93, F 3.42, R 4.39, A 3.74, M 3.62
R2: N 4.2, T 4.95, Q 4.58, F 4.86, W 3.71, K 3.05, C 4.78, L 3.91, V 5, I 3.4, P 4.96, D 5.11, G 4.84, Y 5.39, E 4.7, H 4.05
H1: S 4.16, R 4.55, P 2, Y 4.12, L 4.8, T 4.04, C 3.42, V 4.43, W 3.11, A 3.52, E 4.92, N 4.5, K 4.53
G6: T 2.78, Y 3.5, F 3.06, A 1.82, Q 3.18, M 4.25, H 3.22, P 4.63, I 3.68, K 2.56, D 2.51
R3: G 5.11, F 3.9, H 4.95, Q 3.65, P 4.55, L 4.14, V 4.74, C 3.97, N 4.25, T 4.92, W 4.22, I 4.29, M 3.9, S 4.91, E 4.2, K 4.52, A 4.9
L5: Y 4.66, P 4.16, T 4.82, Q 5.16, H 4.21, K 4.04, V 3.46, E 4.34, M 4.52, F 4.13, I 3.15, R 5.2, A 4
K10: E 4.55, W 2.6, G 4.5, N 4.48, C 3.82, S 5.01, M 4.27, Q 4.92, L 2.36, H 4.18, D 4.89, T 4.38, A 4.56
P11: M 3.99, T 3.51, D 4.29, C 4.13, G 4.55, K 3.82, Q 3.73, I 3.42, R 4.13, H 4.35, A 4.05
G4: D 4.49, N 4.42, A 3.35, R 4.2, C 4.02, S 3.63, Y 4.32, K 5.72, E 5.08, I 4.21, Q 4.33, F 4.72, H 4.3, V 4.87, P 4.8, T 3.35
D8: M 3.18, H 3.74, G 3.42, E 4.59, T 4.41, R 4.26, C 3.08, Q 3.34, A 2.92, S 2.41, K 3.79, V 4.07, F 2.23, I 3.74, N 3, P 2.54, Y 2.41
